# Results taken from patent publication US20050009067A1, “Expression profile of pancreatic cancer” (priority 2003, published 2005).
# Legend:
# [1] = system: NIH3T3 cells; assay: NIH3T3 cell survival after apoptotic insults (5-FU, anoikis on polyHEMA); assay type: cell-based
# Experimental: Apoptosis was induced in NIH3T3 cells either by prevention of cell adhesion to a solid substrate (anoikis) or by use of 5-flurouracil. To prevent cell adhesion, 6 well plates were covered (3 ml/well) with a solution of polyhydroxyethylmethacrylate (polyHEMA; Sigma-Aldrich) dissolved at 10 mg/ml in ethanol. Plates were kept at 37° C. for 5 days to evaporate solvent completely. Cells were resuspended at 5×10^4 cells/ml and were cultured (1 ml/well) in DMEM medium containing 10% fetal calf serum for different times on polyHEMA coated dishes at 37° C. and 5% CO2. Subsequently, cells were subjected to cell viability studies using MTS or recovered and analyzed for caspase 3 activity.
# [2] = biological target: RAGE (endogenous, of NIH3T3 cells) (UniProt Q62151); assay: cell-based or functional assay
# Sequence of RAGE (endogenous, of NIH3T3 cells) (Q62151 23-402 limits assumed): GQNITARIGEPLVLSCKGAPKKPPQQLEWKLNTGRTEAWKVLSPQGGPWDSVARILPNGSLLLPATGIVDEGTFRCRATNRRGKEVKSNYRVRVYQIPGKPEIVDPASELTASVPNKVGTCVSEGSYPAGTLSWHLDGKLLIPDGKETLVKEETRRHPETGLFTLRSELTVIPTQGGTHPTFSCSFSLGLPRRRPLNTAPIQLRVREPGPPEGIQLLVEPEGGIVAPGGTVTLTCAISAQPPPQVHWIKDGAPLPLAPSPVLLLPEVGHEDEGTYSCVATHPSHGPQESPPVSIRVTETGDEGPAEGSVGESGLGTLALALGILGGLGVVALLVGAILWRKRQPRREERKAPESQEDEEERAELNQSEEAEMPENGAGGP
# [3] = system: S100 proteins; conditions: Okada et al. 2002; cited from earlier work
# [4] = system: NIH3T3 cells; assay: Cell growth (MTS) of NIH3T3 cells with exogenously applied purified S100P; assay type: cell-based
# Experimental: Cell growth was analyzed by using MTS reagent (Promega, Madison, Wis.) as per manufactures directions. For studies on the effects of S100P expression, vector alone and three different clonal S100P stably transfected cell lines (1000 cells/well) were seeded into 96 well plates and cell growth was studied from 0-120 hrs. For studies on the effects of exogenously applied S100P, purified S100P was added at indicated concentrations for specific times. MTS was added to the wells one hour before taking the photometric reading.
# Full length S100P cDNA was cloned into pTrcHis2 vector (Invitrogen, Carlsbad, Calif.) and transformed into one shot TOP10 competent E.coli. The bacterial culture was incubated at 37° C. to an OD600=0.6, then IPTG (1 mM) was added and the bacteria were cultured for another 3 hrs. His-S100P was purified using Probond resin column as described by the manufacturer (Invitrogen, Carlsbad, Calif.). The fraction was further dialyzed against 10 mM Tris, pH 8.0, containing 01% Triton X 100 overnight at 4° C. using a Slide-A-Lyzer 10K (Pierce, Rockford, Ill.). Dialyzed protein was further concentrated by Centricon centrifugal filter device YM10 (Millipore, Bedford, Mass.). The purified S100P protein was confirmed by western blot and ELISA and used for in vitro experiments.
# [5] = system: Erk 1 & 2; assay: Erk 1 & 2 phosphorylation in NIH3T3 cells (western blot); assay type: cell-based
# Experimental: Western blot analysis was utilized for the detection of S100P, RAGE, as well as activated Erks and caspase 3 by minor modifications of previously published methods. Cell lysates were prepared and separated by SDS polyacrylimide gel electrophoresis and transferred to nitrocellulose. Membranes were blocked by overnight incubation at 4° C. in 5% milk solution. S100P was detected usingmonoclonal antibodies (Transduction Laboratories, San Diego, Calif.) by incubating the membrane overnight at 4° C. in antibody diluted 1:100 in 5% milk solution. RAGE was detected using goat polyclonal antibodies (Santa Cruz, Santa Cruz, Calif.) by incubating the transferred membrane in for one hour at room temperature with antibody diluted 1:100 in 5% milk solution. Caspase 3 activation was estimated by detection of pro-caspase 3 and active caspase 3 fragments using rabbit polyclonal antibodies against full length caspase 3 (Santacruz Biotech, Calif.) by incubating the membrane at 4° C. for overnight with antibody diluted 1:100 in 5% milk solution. Erk activation was estimated by detection of phosphorylated forms of Erk 1 and 2 using phospho-p44/42 MAP kinase (Thr202/Tyr204) antibody (Cell Signaling, Beverly, Mass.) and, as a loading control after striping, a rabbit polyclonal antibody for total Erk 1 & 2 (Santa Cruz, Santa Cruz, Calif.) by incubating the membrane at 4° C. overnight with antibody diluted 1:100 in 5% milk solution. Second antibody anti-mouse, anti-rabbit, or anti-goat IgG+HRP was incubated for one hour at room temperature and the signal was detected by ECL detection system (Amersham) as per manufacturer protocol.
# [6] = system: NF-κB; assay: NF-κB electrophoretic mobility shift assay in NIH3T3 cells; assay type: cell-based
# Experimental: Nuclear extracts were prepared and used for electrophoretic mobility shift assays (EMSAs) as previously described (Han et al., Am. J. Physiol. 277:C74 [1999]). For NF-κB DNA binding the reaction was started by addition of 10,000 cpm of the 22-base pair oligonucleotide 5′-AGTTGAGGGGACTTTCCCAGGC-3′ (SEQ ID NO:7) containing the NF-κB consensus sequence that had been labeled with [γ-32P]-ATP (10 mCi/mmol) by T4 polynucleotide kinase. The reaction was allowed to proceed for 30 min at room temperature. For cold competition experiments unlabeled NF-κB oligonucleotide or OCT1 oligonucleotide as a nonspecific competitor (300×) were added to the binding reaction 5 min before the addition of the radiolabeled probe. For antibody supershift assays 2 μl of specific antibodies to NF-κB protein subunits p65, p50, and c-Rel were incubated with nuclear extracts for 1 hour at room temperature prior to the addition of labeled probe. All reaction mixtures were subjected to PAGE on 4.5% gel in 0.5×TBE buffer at 200 V. Gels were dried and directly exposed to the membranes were exposed to a B-1 phosphoimaging screen and visualized by the use of GS-250 Molecular Imaging System (Bio-Rad Laboratories, Richmond, Calif.).
# [7] = biological target: T1, RAGE (Mus musculus, UniProt Q62151); assay: Co-immunoprecipitation (pull-down) of S100P with RAGE from NIH3T3 lysates; assay type: binding; conditions: NIH3T3 lysates incubated with S100P and S100P antibody
# T1 construct: RAGE was present in the S100P complexes from wild-type NIH3T3 cells incubated with exogenous S100P and S100P antibody; endogenous in cells; host or cells: NIH3T3 cell lysates for RAGE; E. coli TOP10 for the added His-S100P
# T1 sequence (Q62151 23-402): as the sequence (Q62151 23-402 limits assumed) above
# Experimental: For co-immunoprecipitation experiments, cell lysates were incubated in the absence or presence of S100P (1 μg) at 4° C. overnight. S100P was immunoprecipitated using mouse monoclonal antibody against S100P (Transduction Laboratories, San Diego, Calif.), for 6 hours at 4° C. and IgG immobolized beads (Pierce, Rockford, Ill.). Antibody associated proteins were electrophoresed on 10% polyacrylamide gel and transferred to nitrocellulose membrane. Transferred membrane was blocked by 5% milk solution overnight at 4° C. RAGE was detected as described.
molecule,measurement,setting,value
"O=c1[nH]cc(F)c(=O)[nH]1 [5-FU, 5-fluorouracil, reference compound]",killing of NIH3T3 cells,"[1]; wild-type vs S100P expressing NIH3T3 cells, 5-FU 150 ug/ml (FIG. 5B)",efficiently kill wild-type but not S100P expressing NIH3T3 cells
purified His-S100P protein (His-tagged fusion protein of full length S100P made in E. coli) (from UniProt P25815 1-95) (ligand),"NIH3T3 cell proliferation, fold over control",[2],2 fold
same,survival of NIH3T3 cells after 5 FU,[2],1 nM
CN(C)CC/C=C1/c2ccccc2COc2ccc(CC(=O)O)cc21 [olopatadine],interaction with S100 proteins,[3],interact with S100 proteins
CC(C)c1ccc2oc3nc(N)c(C(=O)O)cc3c(=O)c2c1 [amlexanox],interaction with S100 proteins,[3],interact with S100 proteins
synthetic peptide derived from amphoterin (RAGE antagonist peptide),inhibition of S100P activation of Erk,[2],50 nM
same,"inhibition of S100P activation of Erk, complete",[2],500 nM
"S100P: purified S100P generated as a His-tagged fusion protein in bacteria (protein, UniProt P25815 1-95, looked up, His tag, purified S100P generated as a His-tagged fusion protein in bacteria) Protein S100-P: MTELETAMGMIIDVFSRYSGSEGSTQTLTKGELKVLMEKELPGFLQSGKDKDAVDKLLKDLDANGDAQVDFSEFIVFVAAITSACHKYFEKAGLK",concentration giving maximal effect on cell proliferation,[4]; NIH3T3 cells,100 nM
same,concentration at which effects on cell proliferation were noted,"[4]; purified S100P added to NIH3T3 cells, dose-response",10 pM
same,time after which significant increase in cell proliferation was noted,[4]; time-course,48 h
same,maximal effect on cell proliferation,[4]; with 100 nM S100P,~2 fold over control
same,concentration at which protection from the effects of 5 FU was noted,"[1]; S100P added to culture medium, NIH3T3",1 nM
same,time after which significant protection from anoikis was noted,[1]; time-course,36 h
same,concentration at which effects on Erk phosphorylation were noted,[5]; dose-response,10 pM
same,concentration giving maximal effects on Erk phosphorylation,[5]; dose-response,100 nM
same,duration Erk phosphorylation remained significantly elevated,"[5]; purified S100P, NIH3T3",at least 2 hours
same,time of maximal increase of Erk phosphorylation,"[5]; purified S100P, NIH3T3",30 min
same,time to significant Erk 1 & 2 phosphorylation,"[5]; purified S100P, NIH3T3",≤ 10 min
same,duration increase in NF-κB DNA binding was maintained,"[6]; S100P, NIH3T3, EMSA",at least 2 hours
same,time to initiation of increase in NF-κB DNA binding,"[6]; S100P, NIH3T3, EMSA",≤ 10 min
same,concentration at which significant effects on NF-κB activation were noted,[6]; concentration dependence,0.1 nM
same,concentration giving maximal effect on NF-κB activation,[6]; concentration dependence,100 nM
same,interaction with RAGE (co-immuno-precipitation),[7],can interact directly with RAGE
